# From US20050148763A1, “Peg-binding pth or peg-binding pth derivative” (Chugai Seiyaku Kabushiki Kaisha, priority 2002, published 2005)
# Columns and labels:
# [1] = target: T1, rat PTH1 receptors (Rattus norvegicus, UniProt P25961); test: in vitro ability to produce cAMP, EW29 cells; type: cell-based; conditions: Table 2(3), n=2-3; for EC50: cAMP production
# T1 construct: expressed in transfected cells; host or cells: EW29 cells
# T1 sequence (P25961 27-591): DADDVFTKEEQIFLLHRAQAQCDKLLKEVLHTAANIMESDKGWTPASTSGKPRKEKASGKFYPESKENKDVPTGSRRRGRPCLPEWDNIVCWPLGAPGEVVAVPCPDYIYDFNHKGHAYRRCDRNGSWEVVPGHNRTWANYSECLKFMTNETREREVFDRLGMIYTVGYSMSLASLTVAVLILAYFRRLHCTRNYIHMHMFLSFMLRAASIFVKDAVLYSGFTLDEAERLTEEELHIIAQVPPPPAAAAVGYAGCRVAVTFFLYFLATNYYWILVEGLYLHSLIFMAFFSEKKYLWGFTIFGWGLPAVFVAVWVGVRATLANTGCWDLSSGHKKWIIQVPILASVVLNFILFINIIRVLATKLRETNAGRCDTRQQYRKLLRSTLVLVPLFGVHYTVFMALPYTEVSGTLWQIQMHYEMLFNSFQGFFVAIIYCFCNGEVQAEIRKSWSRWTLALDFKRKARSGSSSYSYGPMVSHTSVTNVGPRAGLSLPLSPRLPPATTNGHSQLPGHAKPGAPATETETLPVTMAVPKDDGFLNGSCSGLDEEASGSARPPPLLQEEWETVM
# Method: (§1) Each PEG-PTH sample was assayed for its ability to produce cAMP (indicative of the increasing effect of PTH on bone mass) as follows. […] These cells were seeded in 96-well plates at 1×10^5 cells/well and incubated overnight. […] After removing the reaction solution, the plates were placed on powdered dry ice to freeze the cells and then removed from the dry ice. The cells were thawed with 50 μL of 50 mM HCl and frozen again on dry ice. The level of intracellular cAMP was determined with a commercially available EIA kit (Biotrak cAMP EIA system, Amersham).
# [2] = target: T2, human PTH1 receptors (Homo sapiens, UniProt Q03431); test: in vitro ability to produce cAMP, HKRK-B64 cells; type: cell-based; conditions: Table 2(2), n=2-3; for EC50: cAMP production
# T2 construct: expressed in transfected cells; host or cells: HKRK-B7 and HKRK-B64 cells (derived from pig kidney LLC-PK1 cells)
# T2 sequence (Q03431 27-593): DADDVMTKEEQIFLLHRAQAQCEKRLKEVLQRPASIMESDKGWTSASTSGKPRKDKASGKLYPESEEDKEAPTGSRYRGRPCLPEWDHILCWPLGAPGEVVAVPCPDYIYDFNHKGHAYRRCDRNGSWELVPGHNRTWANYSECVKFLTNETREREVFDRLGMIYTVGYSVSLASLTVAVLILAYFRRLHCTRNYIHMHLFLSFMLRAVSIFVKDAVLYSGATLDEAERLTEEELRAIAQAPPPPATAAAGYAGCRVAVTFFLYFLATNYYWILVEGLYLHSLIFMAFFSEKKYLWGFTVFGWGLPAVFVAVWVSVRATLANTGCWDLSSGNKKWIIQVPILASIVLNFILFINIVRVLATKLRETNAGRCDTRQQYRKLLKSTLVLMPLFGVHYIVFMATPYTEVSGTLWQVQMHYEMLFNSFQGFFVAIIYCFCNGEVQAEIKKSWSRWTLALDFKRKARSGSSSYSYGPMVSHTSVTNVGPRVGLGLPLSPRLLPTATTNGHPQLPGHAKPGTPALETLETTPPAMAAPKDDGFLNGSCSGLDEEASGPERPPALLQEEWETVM
# Method: Each PEG-PTH sample was assayed for its ability to produce cAMP (indicative of the increasing effect of PTH on bone mass) as follows. HKRK-B7 and HKRK-B64 cells, genetically modified from pig kidney-derived LLC-PK1 cells to overexpress human PTH1 receptors at levels of about 1×10^6 and 9×10^4 receptors per cell, respectively, as well as EW29 cells expressing about 1.9×10^5 rat PTH1 receptors per cell (Takasu et al., J. Bone. Miner. Res. 14: 11-20, 1999) were grown in DMEM supplemented with 10% FBS, 1% penicillin and 1% streptomycin. These cells were seeded in 96-well plates at 1×10^5 cells/well and incubated overnight. On the following day, the cells were washed once with 200 μL binding buffer (50 mM Tris-HCl/100 mM NaCl/5 mM KCl/2 mM CaCl2/5% inactivated horse serum/0.5% inactivated bovine serum, pH 7.7), followed by addition of 100 μL cAMP assay buffer (DMEM/2 mM 3-isobutyl-1-methylxanthine/1 mg/mL bovine serum albumin/35 mM HEPES-NaOH, pH 7.4) on ice. […] After removing the reaction solution, the plates were placed on powdered dry ice to freeze the cells and then removed from the dry ice. The cells were thawed with 50 μL of 50 mM HCl and frozen again on dry ice. The level of intracellular cAMP was determined with a commercially available EIA kit (Biotrak cAMP EIA system, Amersham).
# [3] = target: T2, human PTH1 receptors; test: in vitro ability to produce cAMP, HKRK-B7 cells; type: cell-based; conditions: Table 2(1), n=2-3; for EC50: cAMP production
# Method: as §1
# [4] = Hypercalcemic effect of PEG-[Cys^35]-PTH(1-35) in normal female DDY mice; type: in vivo; conditions: for Blood iCa level Hour 1: 1 hour after administration; for Blood iCa level Hour 3: 3 hours; for Blood iCa level Hour 6: 6 hours; for Blood iCa level Hour 9: 9 hours; for Blood iCa level Hour 24: 24 hours; for Blood iCa level Hour 0: before administration; for hypercalcemic effect (in words): 10-150 nmol/kg
# Method: 2 k, 5 k and 20 k PEG-[Cys^35]-PTH(1-35) were also adjusted similarly to 30, 10 and 2 nmol/mL (calculated as PTH) and allowed to stand on ice immediately before administration.
# Using female DDY mice at 6 weeks of age (Japan SLC, Inc.), the corrected level of ionized calcium at pH 7.4 was determined for each sample in the same manner as shown in (1) above. The mice received subcutaneous administration of each drug at a dose of 5 mL/kg. The buffer was administered to a group of 5 mice. […] 150 nmol/kg 2 k, 5 k and 20 k PEG-[Cys^35]-PTH(1-35) were administered to groups of 4 mice each. 50 and 10 nmol/kg 2 k, 5 k and 20 k PEG-[Cys^35]-PTH(1-35) were administered to groups of 5 mice each. At 1, 3, 6, 9 and 24 hours after administration, blood was collected by orbital puncture to monitor the time course of corrected blood ionized calcium levels.
# [5] = Pharmacokinetics and bioavailability in rats by subcutaneous route; type: in vivo; conditions: subcutaneous, 80 μg/mL at 1 mL/kg
# Method: Each sample was adjusted to 80 μg/mL by dilution with 25 mmol/L citrate-phosphate buffer (pH 5.0) containing 100 mmol/L NaCl and 0.05 vol % Tween 20 to give a solution for administration. Male SD rats at 6 weeks of age (CLEA Japan, Inc.) were provided for this experiment. Intravenous injection was performed on rats having polyethylene tubes (SP-31, Natsume Seisakusho Co., Ltd.) inserted into the femoral artery and vein. The solutions thus prepared were each administered at a dose of 1 mL/kg through a polyethylene tube inserted into the femoral vein, and blood was collected through a polyethylene tube inserted into the femoral artery before administration and at 5, 15, 30 and 45 minutes as well as 1, 2, 4, 6, 8 and 24 hours after administration. Subcutaneous administration was performed on rats having polyethylene tubes inserted into the femoral artery. The solutions prepared above were each subcutaneously administered at a dose of 1 mL/kg to the dorsal neck region of the rats, and blood was collected in the same manner as used for intravenous injection. These blood samples were centrifuged to collect plasma and stored at −40° C. until assayed for PTH(1-34) or PEG-PTH(1-34) levels.
# The level of PTH(1-34) or PEG-PTH(1-34) was determined by RIA analysis using a Rat PTH IRMA Kit (Immutopics). A Cobra Quantum Model 5005 gamma counter (Packard) was used to measure radioactivity for each sample. The plasma level of PTH(1-34) or PEG-PTH(1-34) was calculated from a calibration curve prepared using PTH(1-34) or PEG-PTH(1-34). The Winnonlin program Ver. 2.1 (Scientific Consulting Inc.) was used to analyze the time course of changes in the calculated plasma PTH(1-34) or PEG-PTH(1-34) levels (FIG. 3: by intravenous route; FIG. 4: by subcutaneous route) to calculate the following as pharmacokinetic parameters: time required to reach the maximum plasma level (Tmax); maximum plasma level (Cmax); area under the curve of plasma levels (AUC); plasma half-life (t1/2); total body clearance (Cltotal); mean residence time in the body (MRT); and bioavailability (BA). […]
Maximum cAMP response [1] [pmol/well],EC50 [1] [nM],Maximum cAMP response [2] [pmol/well],EC50 [2] [nM],Maximum cAMP response [3] [pmol/well],EC50 [3] [nM],Substance,Blood iCa level Hour 1 ([4]; 10 nmol/kg sc) [mM],Blood iCa level Hour 3 ([4]; 10 nmol/kg sc) [mM],Blood iCa level Hour 6 ([4]; 10 nmol/kg sc) [mM],Blood iCa level Hour 9 ([4]; 10 nmol/kg sc) [mM],Blood iCa level Hour 24 ([4]; 10 nmol/kg sc) [mM],Blood iCa level Hour 0 ([4]; 10 nmol/kg sc) [mM],Blood iCa level Hour 1 ([4]; 50 nmol/kg sc) [mM],Blood iCa level Hour 3 ([4]; 50 nmol/kg sc) [mM],Blood iCa level Hour 6 ([4]; 50 nmol/kg sc) [mM],Blood iCa level Hour 9 ([4]; 50 nmol/kg sc) [mM],Blood iCa level Hour 24 ([4]; 50 nmol/kg sc) [mM],Blood iCa level Hour 0 ([4]; 50 nmol/kg sc) [mM],Blood iCa level Hour 1 ([4]; 150 nmol/kg sc) [mM],Blood iCa level Hour 3 ([4]; 150 nmol/kg sc) [mM],also measured
59.4 ± 12.9,9.1,79.6 ± 14.6,8,131.1 ± 7.5,2.7,"20 k PEG-[Cys^35]-hPTH(1-35): [Cys^35]-hPTH(1-35) conjugated with 20 kDa PEG (SVSEIQLMHNLGKHLNSMERVEWLRKKLQDVHNFC; Parathyroid hormone 20 kDa PEG at Cys35; UniProt P01270 32-66, looked up, variant V35C)",1.39 ± 0.03,1.51 ± 0.01,1.48 ± 0.05,1.43 ± 0.05,1.78 ± 0.09,1.27 ± 0.04,1.44 ± 0.03,1.53 ± 0.02,1.51 ± 0.03,1.44 ± 0.06,2.44 ± 0.12,1.30 ± 0.04,1.42 ± 0.02,1.54 ± 0.02,"Blood iCa level Hour 6 ([4]; 150 nmol/kg sc): 1.55 ± 0.03 mM; Blood iCa level Hour 9 ([4]; 150 nmol/kg sc): 1.43 ± 0.06 mM; Blood iCa level Hour 24 ([4]; 150 nmol/kg sc): 2.71 ± 0.19 mM; Blood iCa level Hour 0 ([4]; 150 nmol/kg sc): 1.30 ± 0.02 mM; hypercalcemic effect (in words) ([4]; female DDY mice, sc, listed as 20 k PEG-(Cys^35]-PTH(1-35)): very high blood ionized calcium levels at all tested doses; hypercalcemic effect (in words) ([4]; female DDY mice, sc, listed as 20 k PEG-[Cys^35]-PTH (1-35)): maintained a significantly higher level than that of the buffer group even at 9 hours after administration"
–,–,–,–,–,–,"20k PEG-hPTH(1-34): hPTH(1-34) reacted with mPEG 20 k-SPA, fraction having one 20 kDa PEG molecule per PTH molecule",–,–,–,–,–,–,–,–,–,–,–,–,–,–,AUC [5]: 2693.945 ng·h/mL; MRT [5]: 18.93 h; Tmax [5]: 7.000 h; t ½ [5]: 11.346 h
52.5 ± 14.1,3.5,66.6 ± 17.4,1,122.7 ± 11.5,0.9,"5 k PEG-[Cys^35]-hPTH(1-35): [Cys^35]-hPTH(1-35) conjugated with 5 kDa PEG (SVSEIQLMHNLGKHLNSMERVEWLRKKLQDVHNFC; Parathyroid hormone 5 kDa PEG at Cys35; UniProt P01270 32-66, looked up, variant V35C)",1.44 ± 0.02,1.50 ± 0.02,1.43 ± 0.02,1.28 ± 0.04,1.36 ± 0.03,1.30 ± 0.04,1.43 ± 0.03,1.49 ± 0.04,1.48 ± 0.03,1.35 ± 0.06,1.36 ± 0.04,1.31 ± 0.03,1.43 ± 0.04,1.49 ± 0.03,"Blood iCa level Hour 6 ([4]; 150 nmol/kg sc): 1.52 ± 0.05 mM; Blood iCa level Hour 9 ([4]; 150 nmol/kg sc): 1.35 ± 0.02 mM; Blood iCa level Hour 24 ([4]; 150 nmol/kg sc): 1.40 ± 0.05 mM; Blood iCa level Hour 0 ([4]; 150 nmol/kg sc): 1.30 ± 0.03 mM; increased blood ionized calcium level maintained until ([4]; female DDY mice, sc): 6 h; time of maximum increase in blood ionized calcium levels after administration ([4]; female DDY mice, sc): 3 h"
